Biological target: T1, GFP-TRAK1 (mouse, UniProt Q6PD31 1-939)
T1 construct: TRAK1, mouse; also called kinesin adaptor TRAK1
T1 sequence (looked up): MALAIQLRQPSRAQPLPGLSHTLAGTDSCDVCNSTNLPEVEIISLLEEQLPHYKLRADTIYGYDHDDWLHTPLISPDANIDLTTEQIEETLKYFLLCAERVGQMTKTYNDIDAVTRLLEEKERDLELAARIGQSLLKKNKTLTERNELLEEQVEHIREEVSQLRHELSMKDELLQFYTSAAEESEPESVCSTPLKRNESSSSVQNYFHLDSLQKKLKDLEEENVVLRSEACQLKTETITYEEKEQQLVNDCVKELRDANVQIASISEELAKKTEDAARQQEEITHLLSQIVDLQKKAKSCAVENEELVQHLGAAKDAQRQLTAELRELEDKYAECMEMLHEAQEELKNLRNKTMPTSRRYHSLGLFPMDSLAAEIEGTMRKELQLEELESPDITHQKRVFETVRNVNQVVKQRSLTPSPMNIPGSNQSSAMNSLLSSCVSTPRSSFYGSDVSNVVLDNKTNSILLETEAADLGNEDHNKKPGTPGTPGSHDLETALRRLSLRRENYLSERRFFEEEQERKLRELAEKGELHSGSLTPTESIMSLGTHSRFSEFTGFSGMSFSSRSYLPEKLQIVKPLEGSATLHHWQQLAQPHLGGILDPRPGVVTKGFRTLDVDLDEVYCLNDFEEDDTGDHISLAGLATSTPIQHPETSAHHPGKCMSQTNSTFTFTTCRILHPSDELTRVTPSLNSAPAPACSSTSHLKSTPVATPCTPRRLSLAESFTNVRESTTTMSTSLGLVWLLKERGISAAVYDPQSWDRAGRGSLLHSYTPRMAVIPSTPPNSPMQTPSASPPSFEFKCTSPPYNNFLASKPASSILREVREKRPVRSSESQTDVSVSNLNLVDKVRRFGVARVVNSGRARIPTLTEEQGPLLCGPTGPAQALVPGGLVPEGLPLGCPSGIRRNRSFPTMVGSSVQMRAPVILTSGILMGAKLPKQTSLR
Experiment: co-IP; coimmunopurification of mycMiro1 and GFP-TRAK1 from transfected cells, untreated or treated with 10 uM FCCP, 1 h; GFP-TRAP beads per the methods; lysis in 50 mM Tris pH 7.4, 150 mM NaCl, 1 mM EDTA, 0.5% Triton X-100; western blot, densitometry
Details: partners not purified

B1: Myc-tagged Miro1 (natural protein, UniProt Q8IXI2 1-618, looked up)
chain: MKKDVRILLVGEPRVGKTSLIMSLVSEEFPEEVPPRAEEITIPADVTPERVPTHIVDYSEAEQSDEQLHQEISQANVICIVYAVNNKHSIDKVTSRWIPLINERTDKDSRLPLILVGNKSDLVEYSSMETILPIMNQYTEIETCVECSAKNLKNISELFYYAQKAVLHPTGPLYCPEEKEMKPACIKALTRIFKISDQDNDGTLNDAELNFFQRICFNTPLAPQALEDVKNVVRKHISDGVADSGLTLKGFLFLHTLFIQRGRHETTWTVLRRFGYDDDLDLTPEYLFPLLKIPPDCTTELNHHAYLFLQSTFDKHDLDRDCALSPDELKDLFKVFPYIPWGPDVNNTVCTNERGWITYQGFLSQWTLTTYLDVQRCLEYLGYLGYSILTEQESQASAVTVTRDKKIDLQKKQTQRNVFRCNVIGVKNCGKSGVLQALLGRNLMRQKKIREDHKSYYAINTVYVYGQEKYLLLHDISESEFLTEAEIICDVVCLVYDVSNPKSFEYCARIFKQHFMDSRIPCLIVAAKSDLHEVKQEYSISPTDFCRKHKMPPPQAFTCNTADAPSKDIFVKLTTMAMYPHVTQADLKSSTFWLRASFGATVFAVLGFAMYKALLKQR
notes: Miro1, outer mitochondrial membrane GTPase; also called mycMiro1
For B1, the “co-IP with FCCP relative to untreated control (1)” value was 0.94 fold of control.
